# B1: Aspergillus terreus LovG: Esterase (protein)
# chain: HHHHHHMRYQASPALAKAPRALLCIHGAGCSPAIFRVQLSKLRAALREDFEFVYVTAPFPSSAGPGILPVFADLGPYYSWFESSSGNNNNGPSVGERLAAVHDPIRRTIVDWQTQHPHIPIVGAIGFSEGALVTTLLLWQQQMGRLPWLPRMSVAMLICPWYQDEASQYMRNEVMENHDDDHDSKDTEWQEELVIRIPTLHLQGRDDFALAGSKMLVARHFSPREAQVLEFAGQHQFPNRPRDVLEVINRFRKLCVTVQTLE
# Molecular target: Aspergillus terreus LovB: Lovastatin nonaketide synthase
protein,measurement,value
B1,"offloaded aberrant products 8-10 from LovB in vitro in the absence of LovC (HPLC at 330 nm, LC-MS)","Upon addition of LovG at equimolar concentration to LovB, the in vitro assay mixture turned significantly more yellow and the extract contained high amounts of offloaded products 8-10, in addition to 6 and 7"
same,"turnover rate of dihydromonacolin L acid (2), in vitro with equimolar (10 µM) LovB, LovC and LovG",the turnover rate of dihydromonacolin L acid (2) was estimated to be ˜0.12 hour^-1
